What was measured:
[1] = biological target: T1, tau phospho-peptide of the direct ELISA of Example 11; assay: direct ELISA, peptide coated
T1 construct: also called pT217 peptide; pT212/pT217 peptide
Experimental: (§1) Binding to tau phospho-peptide was analysed by ELISA where peptide (10 ng/mL) was directly coated to the plate overnight. […] After incubation with antibodies, plates were washed and 50 μL per well of HRPO labelled anti-Fab antibody (Jackson Immunoresearch laboratories) (diluted 1:10000 in blocking buffer). After another washing step detection was performed with “One step” TMB (Thermo Scientific) according to the manufacturers' instructions. Plates were analysed in EnVision® 2102 Multilabel Reader (Perkin Elmer, Waltham, Mass., USA). Binding curves were generated using GraphPad Prism7.0 software.

[2] = biological target: T2, PHF-tau (paired helical filament tau isolated from Alzheimer's disease brain) (human, UniProt P10636-8 2-441, limits assumed, hyper-phosphorylated, aggregated; sites not listed for the preparation); assay: SPR ProteOn, PHF-tau capture-coupled via HT7, 1:1 model
T2 construct: also called enriched PHF-tau; ePHF-tau
Experimental: (§2) Affinity matured monoclonal antibodies were tested for binding to PHF-tau isolated from Alzheimer's disease brain.
(§3) A GLC sensor chip was covalently immobilized with a mouse anti-tau antibody, HT7 (ThermoFisher, catalog# MN1000) using the vendor recommended protocol for amine-coupling chemistry (˜5000 response units, RU). The coupling buffer was 10 mM, pH 4.5 sodium acetate. PHF-tau was prepared by 2-times centrifugation at 5000×g in 5° C. for 10 min. […] After capture-coupling, the surface was activated and deactivated to generate a homogenous PHF-tau surface for antibody binding studies. The anti-tau antibodies and their Fabs (prepared in running buffer, 0.024-75 nM at 5-fold dilutions) were injected at 50 μL/min over the PHF-tau surface to measure binding. The association and dissociation profiles were monitored for 4 minutes and 2 hours, respectively. After dissociation, the sensor chip was regenerated using multiple injections of 10 mM Glycine pH 2.0 and the running buffer. A reference surface (without any PHF-tau) was used to monitor non-specific binding of the injected mAbs or Fabs. HT7 antibody was used as a positive control. The binding sensorgrams for mAbs were fit using a bivalent binding model where the apparent affinity or avidity-driven binding (KD) was reported as the ratio of off-rate and on-rate (koff/kₒₙ). A 1:1 Langmuir binding model was used for kinetics analysis of Fabs.

[3] = biological target: T1, tau phospho-peptide of the direct ELISA …; assay: direct ELISA on plate-coated tau phospho-peptide, Fabs
Experimental: as §1

[4] = biological target: T2, PHF-tau (paired helical filament tau …); assay: SPR ProteOn, PHF-tau capture-coupled via HT7, 1:1 model; lower end of range
Experimental: as §2, §3

[5] = biological target: T2, PHF-tau (paired helical filament tau …); assay: SPR ProteOn, PHF-tau capture-coupled via HT7, 1:1 model; upper end of range
Experimental: as §2, §3

[6] = biological target: T2, PHF-tau (paired helical filament tau …); assay: SPR ProteOn, PHF-tau on chip
Peptide-2 [7] = biological target: T3, Peptide-2 (human, phosphothreonine 212, phosphothreonine 217 (tau 2N4R numbering); short chain biotin (SCBiot) and dPEG4 at the N-terminus; amide at the C-terminus); assay: SPR ProteOn, peptide captured, Fab as analyte
T3 construct: also called pT212/pT217-tau peptide (Peptide-2)
Experimental: (§4) A subset of HFA-PT3 monoclonal antibody variants, selected based on biophysical characterization and ELISA binding to PHF, were analyzed by Surface Plasmon Resonance (SPR) with a ProteOn XPR36 for binding to the following phosphopeptides: pT212/pT217-tau peptide (Peptide-2, SEQ ID NO: 48) and pT212-tau peptide (Peptide-8, SEQ ID NO: 54). All experiments were performed at 25° C. using PBST, pH 7.4, (Bio-Rad Cat#176-2720) as both running buffer and sample dilution buffer.
(§5) Fab/peptide binding. Biotinylated peptide was captured on a neutravidin-coated NLC biosensor chip pre-conditioned with PBST, and Fab was flowed over the surface to measure kinetic parameters. Approximately 5-10 RU of peptide was captured on the chip surface by diluting peptide to 10 ng/mL in PBST and injecting over the flow channels at 30 μL/min for 100 s. Serial dilutions of PT3 Fab (1.1 nM to 90 nM) were injected at 60 μL/min for 3 minutes (association phase), followed by 300 s of buffer only (dissociation phase).
(§6) Data were double referenced by subtraction of the interspot response, and the curves generated by the buffer only injection. The chip surface was regenerated with 0.85% phosphoric acid, followed by PBST injection before the next antibody titration injection. Data processing and analysis were performed using instrument software. The data were fit using a simple Langmuir 1:1 binding model.

[8] = biological target: T2, PHF-tau (paired helical filament tau …); assay: SPR ProteOn, PHF-tau capture-coupled via HT7, 1:1 model; remark: listed apart in the source
Experimental: (§7) A subset of HFA-PT3 monoclonal antibodies was tested for binding to PHF-tau isolated from Alzheimer's disease brain. All interactions were studied at 25° C. using PBS pH 7.4, supplemented with 3 mM EDTA, and 0.005% Tween 20 as running or system buffer. HT7 (Pierce, catalog #MN1000), a mouse anti-tau antibody, was used as a positive control.
(§8) The interaction of anti-tau monoclonal antibodies with PHF-tau was analyzed by ProteOn using a biosensor surface prepared by capture-coupling PHF-tau using HT7 as the capture reagent. PHF-tau was prepared by 2-times centrifugation at 5000×g at 5° C. for 10 min; the supernatant from the second centrifugation was then diluted 1/40 in running buffer. To prepare the chip, HT7 was covalently immobilized to the surface of a GLC (ProteOn) sensor chip using the manufacturer's instructions for amine-coupling chemistry (˜5000 response units (RU)). The coupling buffer was 10 mM sodium acetate, pH 4.5. After HT7 immobilization, PHF-tau was injected and captured (˜300 RU) by HT7. After capture, PHF-tau was covalently immobilized to the sensor chip by activation of the chip using the manufacturer's instructions for amine-coupling chemistry. Remaining reactive sites were blocked by the injection of ethanolamine. After preparation and stabilization of the PHF-tau-modified surface and reference surface (containing no antigen), the anti-tau antibodies were diluted in the running buffer and injected in solution (0.12-75 nM in 5-fold dilutions). The association was monitored for 3 minutes (120 μL injected at 40 μL/min). The dissociation was monitored for 15 minutes. Regeneration of the sensor surface was performed using 10 mM Gly pH 2.0. The data for monoclonal antibodies were fit using a bivalent binding model where the apparent affinity (KD) was reported as the ratio of koff/kₒₙ. A Langmuir 1:1 binding model was used for kinetics analysis of Fabs.

Peptide-2 [9] = biological target: T3, Peptide-2; assay: SPR ProteOn, peptide captured, Fab as analyte; range of n=2
Experimental: as §4, §5, §6

Peptide-2 [10] = biological target: T3, Peptide-2; assay: SPR ProteOn, peptide captured, Fab as analyte; range of n=2; upper end of n=2 range
Experimental: as §4, §5, §6

Peptide-2 [11] = biological target: T3, Peptide-2; assay: SPR ProteOn, mAb captured, peptide as analyte
Experimental: as §4
(§9) Monoclonal antibody/Peptide binding. […] Anti-human IgG was amine-coupled to the chip surface using EDC/NHS, then washed with ethanolamine. Antibodies were diluted to 2 μg/mL in PBST and injected on the surface for 5 min at 30 μL/min to achieve a maximum density of 900-1000 RU. Peptides were injected as analytes at 60 μL/min for 3 min, followed by 5 min dissociation. Peptide-2 was diluted in PBST to generate a three-fold concentration series (0-30 nM) and measured in duplicate. Single measurements of monoclonal antibody binding to Peptide-8 were recorded over the concentration range 0-100 nM.
as §6

Peptide-2 [12] = biological target: T3, Peptide-2; assay: SPR ProteOn, mAb captured, peptide as analyte; range of n=2
Experimental: as §4, §9, §6

[13] = biological target: T2, PHF-tau (paired helical filament tau …); assay: SPR ProteOn, PHF-tau capture-coupled via HT7, bivalent model
Experimental: as §7, §8

Peptide-8 = biological target: T4, Peptide-8 (human, phosphothreonine 212 (tau 2N4R numbering); SCBiot and dPEG4 at the N-terminus; amide at the C-terminus); assay: SPR ProteOn, mAb captured by anti-human Fc, peptide as analyte; poor data fit
T4 construct: also called pT212-tau peptide (Peptide-8)
Experimental: as §4, §9, §6

Peptide-2 [14] = biological target: T3, Peptide-2; assay: SPR ProteOn, mAb captured, peptide as analyte; range of n=2; upper end of n=2 range
Experimental: as §4, §9, §6

[15] = biological target: T2, PHF-tau (paired helical filament tau …); assay: SPR ProteOn, PHF-tau

T2 sequence (P10636 other isoform, or with tags, fused parts or gaps limits assumed): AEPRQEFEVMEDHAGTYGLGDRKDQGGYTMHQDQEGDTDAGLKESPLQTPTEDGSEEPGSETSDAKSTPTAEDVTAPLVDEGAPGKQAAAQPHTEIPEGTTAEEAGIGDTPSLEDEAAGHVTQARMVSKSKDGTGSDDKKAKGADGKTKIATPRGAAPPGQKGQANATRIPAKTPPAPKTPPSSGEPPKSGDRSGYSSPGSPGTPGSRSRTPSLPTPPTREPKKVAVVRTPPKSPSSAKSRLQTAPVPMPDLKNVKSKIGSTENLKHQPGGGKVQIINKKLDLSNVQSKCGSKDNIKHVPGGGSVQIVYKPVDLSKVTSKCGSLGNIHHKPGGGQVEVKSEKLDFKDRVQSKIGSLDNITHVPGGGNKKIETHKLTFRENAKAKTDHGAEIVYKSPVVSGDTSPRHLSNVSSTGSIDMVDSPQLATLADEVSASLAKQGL
T3 sequence (peptide, as listed by the source): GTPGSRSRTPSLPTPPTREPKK

B1: B330 (Fab of B711) (Fab, V domains shown)
VH: QVQLVESGGGVVQPGRSLRLSCAASGFTFTSYAMSWVRQAPGKGLEWVASITKGGNTYYADSVKGRFTISRDNSKNTLYLQMNSLRAEDTAVYYCARGWGIYGWFAYWGQVTLVTVSS
VL: DIQMTQSPSSLSASVGDRVTITCKASQDINRWLNWFQQKPGKAPKSLIYRANRLLDGVPSRFSGSGSGTDFTLTISSLQPEDFATYYCLQYDEFPLTFGQGTKLEIK
notes: the Fab's constant parts and tag are not described; also called M330; M333 (the Fab of B711)
EC50 [1]: 0.107 nM
Kd [2]: 0.0156 nM
koff [2]: 7.15e-05 s⁻¹
kon [2]: 4.6e+06 M⁻¹ s⁻¹
EC50 (read off the curve) [3]: ~0.2 nM
Kd [4]: 0.0153 nM
koff [4]: 6.94e-05 s⁻¹
kon [4]: 4.53e+06 M⁻¹ s⁻¹
Kd [5]: 0.0158 nM
koff [5]: 7.36e-05 s⁻¹
kon [5]: 4.66e+06 M⁻¹ s⁻¹

B2: B326 (Fab of B252) (Fab, V domains shown)
VH: QVQLVESGGGLVKPGGSLRLSCAASGFTFSSYAMSWIRQAPGKGLEWVSSISKGGNTYYADSVKGRFTISRDNAKNSLYLQMNSLRAEDTAVYYCARGWGDYGWFAYWGQVTLVTVSS
VL: DIVMTQTPLSSPVTLGQPASISCKASQDINRYLNWLQQRPGQPPRLLIYRANRLLDGVPDRFSGSGAGTDFTLKISRVEAEDVGVYYCLQYDEFPLTFGQGTKLEIK
notes: also called B252 Fab
fold weaker KD than the mouse PT3 parent Fab B187 [6]: 3.3 fold
Kd (Peptide-2 [7]): 0.493 nM
koff (Peptide-2 [7]): 0.000329 s⁻¹
kon (Peptide-2 [7]): 710000 M⁻¹ s⁻¹
Kd [8]: 0.224 nM
koff [8]: 0.00023 s⁻¹
kon [8]: 1.02e+06 M⁻¹ s⁻¹
Kd (Peptide-2 [9]): 0.387 to 0.599 nM
koff (Peptide-2 [9]): 0.000304 s⁻¹
kon (Peptide-2 [9]): 507000 M⁻¹ s⁻¹
koff (Peptide-2 [10]): 0.000353 s⁻¹
kon (Peptide-2 [10]): 912000 M⁻¹ s⁻¹

B3: B280 (antibody, human IgG1, V domains shown)
VH: EVQLLESGGGLVQPGGSLRLSCAASGFTFSSYAMSWVRQAPGKGLEWVSSISKGGNTYYADSVKGRFTISRDNSKNTLYLQMNSLRAEDTAVYYCAKGWGDYGWFAYWGQVTLVTVSS
VL: DIVMTQTPLSSPVTLGQPASISCKASQDINRYLNWLQQRPGQPPRLLIYRANRLLDGVPDRFSGSGAGTDFTLKISRVEAEDVGVYYCLQYDEFPLTFGQGTKLEIK
notes: Humanized (HFA) PT3 variant, human IgG1/kappa; also called VH91/VL80
Kd (Peptide-2 [11]): 0.769 nM
koff (Peptide-2 [11]): 0.00274 s⁻¹
kon (Peptide-2 [11]): 4.71e+06 M⁻¹ s⁻¹
Kd (Peptide-2 [12]): 0.418 to 1.12 nM
koff (Peptide-2 [12]): 0.00246 s⁻¹
kon (Peptide-2 [12]): 2.21e+06 M⁻¹ s⁻¹
Kd [13]: 0.055 nM
koff [13]: 5.63e-05 s⁻¹
kon [13]: 1.02e+06 M⁻¹ s⁻¹
Kd (Peptide-8): 34.7 nM
koff (Peptide-8): 0.00757 s⁻¹
kon (Peptide-8): 218000 M⁻¹ s⁻¹
koff (Peptide-2 [14]): 0.00301 s⁻¹
kon (Peptide-2 [14]): 7.2e+06 M⁻¹ s⁻¹

B4: PT1 mAb (hyb) (antibody, V domains shown)
VH: QVQLQQSGTELMKPGASVKISCKATGYTFSSSWMGWVKQRPGHGLEWIGDILPGSGGTNYNERFKGKASFTAETSSNTAYMQLSSLTSEDSAVYYCVRSYYDYDRFANWGQGTLVTVSA
VL: DIVMTQAAPSVPVTPGESVSISCRSSESLLHSNGNTYLYWFLQRPGQSPQLLIYRMSNLASGVPDRFSGSGSGTAFTLRISRVEAEDVGVYYCMQYLEYPLTFGAGTKLELK
Kd [15]: 0.322 nM
koff [15]: 6.47e-05 s⁻¹
kon [15]: 201000 M⁻¹ s⁻¹
